The supplement of paper PMC10567573

B1: RPS21 (parent)
chain: AEVSWEPGRREGCDICAGKAGCPI
B2: MTMR15 (parent)
chain: FSPDFTLRNTLKSTSEDSLVKQEC

Variants of: B1
Assay: protein stability index of a GFP-peptide fusion (GPS, HEK-293T) (PSI 1-6); higher = more stable
Conditions: c terminus: a fixed tail appended
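Also: lentivirally expressed fusions sorted by FACS into six bins by GFP to DsRed ratio, PSI derived from sequencing read proportions per bin multiplied by bin number.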

Protein stability index, by site and new letter:
E2: Y 2.68 | G 3.38 | S 2.94 | K 1.92 | R 1.99 | F 1.23 | M 2.83 | D 3.79 | T 2.84 | L 3.09 | H 2.02 | N 3.51 | C 2.91 | Q 2.36
S4: D 3.41 | A 4.39 | G 3.64 | Y 2.92 | M 1.58 | N 4.34 | F 2.45 | V 3.23 | C 3.24 | W 2.79 | T 2.54 | E 4.2 | L 3.81 | K 3.77
V3: M 1.9 | F 2.68 | Q 3.17 | K 4 | I 2.23 | S 3.34 | D 4 | W 3.27 | R 3.01 | G 4 | P 3.87 | Y 3.54 | E 4.58 | H 4.16 | T 3.66 | C 3.78 | A 4.16
A1: R 3.51 | S 2.71 | M 3.37 | F 1.94 | V 1.36 | C 2.9 | E 3.49 | H 2.65 | Y 2.76 | D 3.94 | P 3.8 | K 2.67 | G 3.57

Variants of: B2
Assay: as above
Conditions: c terminus: a fixed tail appended

Protein stability index: each site, then its substitutions
K21: I 2.21 | L 2.04 | S 1.9 | D 2.23 | A 2.81 | C 2.69 | M 2.86 | E 2.52 | F 2.06 | W 2.4 | V 2 | T 2.1 | H 2.83 | G 2.15 | N 2.94 | R 3.02 | P 1.86 | Y 2.62 | Q 2.33
S18: E 2.02 | G 1.76 | W 1.75 | N 1.57 | P 2.05 | V 1.84 | Y 2.41 | K 2.17 | I 3.61 | L 2.48 | D 1.76 | H 1.92 | T 2.21 | C 1.79 | M 2.37 | F 1.87 | A 1.75 | Q 2.01 | R 2.3
S13: C 2.08 | N 2.69 | F 2.13 | Q 2.31 | M 2.02 | R 3.03 | P 2.12 | D 2.02 | K 1.58 | L 1.83 | H 2.42 | Y 2.35 | W 2.66 | E 2.11 | G 1.81 | I 2.56 | T 1.53 | A 1.9 | V 1.97
Q22: N 2.02 | K 1.62 | T 2.42 | P 1.67 | F 2.65 | Y 2.39 | M 1.65 | A 1.56 | I 2.06 | C 2.06 | S 1.86 | G 2.31 | R 1.72 | V 2 | L 1.88 | D 1.92 | H 1.91 | W 2.08 | E 2.15
L19: V 1.66 | R 2.15 | A 1.7 | T 2.56 | N 2.2 | E 2.1 | M 2.46 | W 1.69 | Q 3.03 | K 1.85 | C 2.15 | S 1.97 | H 2.32 | Y 2.24 | I 2.5 | P 1.96 | G 2 | F 2.14 | D 2.37
E16: H 2.25 | I 1.91 | F 2.48 | A 1.67 | M 2.29 | N 1.93 | L 1.75 | Q 2.41 | G 1.93 | K 1.75 | T 1.57 | S 2.1 | V 2.68 | D 2.54 | P 2.38 | Y 1.83 | R 1.76 | W 2.38 | C 1.98
T14: C 2.78 | K 1.73 | A 1.54 | D 2.1 | V 2.43 | P 1.69 | N 2.11 | S 2.1 | Y 1.72 | G 2.49 | W 1.58 | H 1.96 | R 1.77 | E 2.64 | M 2.05 | I 1.62 | Q 2.31 | F 2.82 | L 2
K12: F 2.03 | P 1.77 | V 2.14 | R 1.71 | T 1.67 | Q 1.92 | H 1.71 | Y 2.38 | C 2.34 | E 2.67 | I 2.6 | N 1.41 | G 2.24 | A 1.79 | W 3.33 | S 2.04 | M 1.81 | L 2.28 | D 2.27
V20: E 2.12 | W 2.12 | G 1.78 | C 1.74 | T 2.01 | Q 2.06 | M 2.29 | A 2.09 | Y 2 | K 2.46 | F 3.85 | R 2.21 | H 2.19 | P 2.44 | N 2.2 | L 2.08 | S 2.04 | I 2.19 | D 2.08
D17: F 2.8 | L 2.36 | A 1.89 | Q 2.37 | R 1.61 | P 2.08 | K 1.69 | G 2.03 | V 2.06 | T 2.22 | H 2.34 | E 2.12 | W 2.6 | C 1.47 | Y 2.11 | N 1.8 | S 1.45 | I 2.58 | M 2.07
E23: C 2.49 | R 2.42 | S 2.27 | F 2.51 | G 2.26 | T 1.75 | L 1.77 | W 2.59 | Q 2.3 | P 2.04 | N 1.58 | H 1.95 | Y 1.84 | V 1.94 | K 1.61 | I 1.72 | M 1.88 | D 1.52 | A 2.87
C24: K 1.4 | H 1.85 | F 2.63 | N 2.16 | I 1.67 | S 1.85 | A 2.03 | R 2.34 | E 1.69 | L 2.03 | V 2.03 | Q 2.87 | G 2.39 | T 1.98 | D 2.59 | M 2.74 | W 2.18 | Y 3.07 | P 2.75
S15: M 1.99 | E 1.82 | V 1.48 | Y 1.83 | I 1.73 | Q 1.84 | T 1.85 | G 2.33 | F 2.63 | P 1.83 | N 1.43 | K 1.73 | A 1.64 | C 2.71 | L 1.96 | D 1.95 | H 1.93 | R 2.34 | W 2.02
T10: Y 2.27 | S 1.82 | R 2.15 | Q 1.59 | N 1.87 | M 2.11 | W 2.32 | L 2.61 | V 1.76 | P 1.7
L11: K 2 | R 1.81 | T 1.81 | W 1.81 | D 2.25 | F 2.47 | P 2.11 | M 2.31 | C 2.42 | N 1.94 | G 2.11 | Q 2.06 | A 1.57 | I 2.83 | H 1.76 | Y 1.75 | S 2.04 | E 2.25 | V 2.26
